Experimental data published in patent US4638005A, “Monoquaternized pyrazinium compounds and their use as electron carriers in photosynthetic processes” (The Coca-Cola Company, priority 1983, dated 1987).

Tests used:
nitrogenase [1] = target: T1, nitrogenase (Azotobacter vinelandii, UniProt P00459); experiment: Chloroplast-coupled reduction of acetylene to ethylene by nitrogenase (electron carrier bioassay of Benemann); format: biochemical
T1 construct: the nitrogenase sample was prepared from a culture of Azotobacter vinelandii; endogenous in cells; host or cells: Azotobacter vinelandii culture; French press lysate, 10,000 x g supernatant (crude)
Procedure: The activity of the pyrazinium compounds as electron carriers in an illuminated photocouple process using isolated chloroplasts and the reductive enzyme catalyst nitrogenease has been determined using the bioassay of Benemann, et al., Proc. Natl. Acad. Sci. USA, 64, 1079(1969). In this method, the carrier activity is measured as a function of nitrogenase reduction of acetylene to ethylene, the rate of production of ethylene being the direct measurement.
(§1) For the bioassay, the nitrogenase sample was prepared from a culture of Azotobacter vinelandii grown to a cell density of about 1 g/l. The cells harvested by centrifugation were broken in a French press, cell debris spun off at 10,000 XG for 1 hr., and the supernatant containing 40 mg/ml protein was used in the bioassay experiments. […] chloroplasts from spinach leaves as described by Benemann were also used. The synthetic carriers were tested in aqueous solutions at concentrations of 2 mM, while the standard, clostridial ferredoxin, was used in 0.2 mM aqueous solution. The concentrations of carriers in the assay mixtures were chosen so as to guarantee carrier saturation conditions. Thus, the observed differences in rates of ethylene production from the substrate acetylene were assigned directly to variations in the efficiency of electron transfer from the illuminated chloroplast to the nitrogenase. The results obtained for acetylene reduction (nitrogen fixation) using the pyrazinium compounds of Examples 1 through 42 are summarized in Table I and are expressed as nmoles of ethylene produced per mg protein per minute.

nitrogenase [2] = target: T1, nitrogenase; experiment: Chloroplast-coupled evolution of hydrogen by nitrogenase in the absence of substrate; format: biochemical; conditions: Table II, hydrogen evolution
Procedure: as §1
It has been recognized for sometime the connection existing between hydrogen metabolism and nitrogen fixation. […] When nitrogenase was purified extensively, as mentioned above, it became apparent that in addition to nitrogen, nitrogenase also catalyzed the reduction of protons. The evolution of hydrogen is particularly active in the absence of the normal substrates for nitrogenase (nitrogen, acetylene, cyanide, azide, etc.), and is dependent upon a strong reductant and adenosine triphosphate hydrolysis. Since hydrogen evolution is not inhibited by CO, but reduction of nitrogen and other substrates is, the reduction of protons presumably occurs at a site other than the site of nitrogen reduction, H. C. Winter, et. al., Ann Rev. Biochem, 45, 409 (1976). Accordingly, with the same bioassay system and with exclusion of nitrogen, and acetylene, the activity of the pyrazinium compounds to act as carriers for production of hydrogen has been determined.
The results of this study, which are summarized in Table II, indicate that the pyrazinium salts that mediate the reduction of acetylene with electrons from the photoexcited chloroplast, are also mediating the reduction of protons by the nitrogenase.

[3] = Polarographic half-wave potential (first wave reduction); format: physicochemical; conditions: 0.1 M phosphate buffer pH 7.55, 25° C.
Excerpt: Sci., 65, 1471(1976). Therefore, it was of interest to measure polarographically the half-wave potentials of the several pyrazinium salts under consideration, to determine the possible effect of structure upon their redox potentials.

[4] = cited from earlier work

T1 sequence (P00459 2-290 limits assumed): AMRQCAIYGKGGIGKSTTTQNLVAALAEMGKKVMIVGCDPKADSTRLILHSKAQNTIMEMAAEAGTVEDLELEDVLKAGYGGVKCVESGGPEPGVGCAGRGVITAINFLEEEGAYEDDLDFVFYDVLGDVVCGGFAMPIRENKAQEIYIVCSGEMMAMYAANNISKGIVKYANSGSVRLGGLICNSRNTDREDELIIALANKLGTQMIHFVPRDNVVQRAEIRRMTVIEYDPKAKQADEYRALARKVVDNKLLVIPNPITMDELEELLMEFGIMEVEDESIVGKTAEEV

Q: With “Clostridial Ferredoxin: the standard, clostridial ferredoxin; natural protein electron carrier, used in 0.2 mM aqueous solution (AYKIADSCVSCGACASECPVNAISQGDSIFVIDADTCIDCGNCANVCPVGAPVQE; UniProt P00195 2-56, looked up) [reference compound]” as the substance, how does the “ACTIVITY RELATIVE TO FERREDOXIN (%)” value (nitrogenase [1]; Table I, acetylene reduction to ethylene) read?
A: 100%

Q: And the “ACTIVITY (nmoles C2 H4 /mg protein/min)” value (nitrogenase [1]; Table I, illuminated spinach chloroplasts, synthetic carriers 2 mM, clostridial ferredoxin 0.2 mM)?
A: 13.5 nmoles C2 H4 /mg protein/min

Q: What about the “ETHYLENE FORMATION % Ferredoxin Activity” value (nitrogenase [1]; Table III ranking) of the same substance?
A: 100%

Q: What about the “% FERREDOXIN ACTIVITY” value (nitrogenase [1]; Table IV, acetylene reduction) of the same substance?
A: 100%

Q: And the “ACTIVITY RELATIVE TO FERREDOXIN (%)” value (nitrogenase [2])?
A: 100%

Q: And the “ACTIVITY (nmoles H2 /mg protein/min)” value (nitrogenase [2]; no nitrogen or acetylene, synthetic carriers 2 mM, ferredoxin 0.2 mM)?
A: 26.7 nmoles H2 /mg protein/min

Q: And the “E1/2 vs. SCE (mV)” value [3]?
A: -570 mV

Q: What about the midpoint potential ([4]; natural electron carriers for the nitrogenase) of the same substance?
A: -570 mV

Q: And the half-wave potential ([4]; pH 7.52)?
A: -570 mV
